Patent publication US20140179593A1 (published 2014)
Like-named read-outs stand apart in the source and are kept apart here. Starred links: 1 amine or outer side, 2 acyl side, 3 side chain; linkers in the order of their positions; H or OH if unused. Positions of bridges follow the written chain, without caps; N, C: chain ends. Non-standard residues stand in square brackets, D forms with d. αMeNva(5-ylidene) = C[C@@](CCC=[*:3])(N[*:1])C(=O)[*:2]; S8 = C=CCCCCCC[C@](C)(N)C(=O)O; SeMet = C[Se]CC[C@H](N)C(=O)O; S5 = C=CCCC[C@](C)(N)C(=O)O; Nle = CCCC[C@H](N)C(=O)O

Experiments:
[1] = biological target: T1, hE1 for Nedd8 (APPBP1-UBA3, NAE1-UBA3) (Homo sapiens, UniProt Q13564 18-534; Q8TBC4 22-463, limits assumed); assay: ITC, peptide titrated into hE1
T1 construct: Heterodimeric E1 expressed in E. coli as described in earlier publications
T1 sequence 1: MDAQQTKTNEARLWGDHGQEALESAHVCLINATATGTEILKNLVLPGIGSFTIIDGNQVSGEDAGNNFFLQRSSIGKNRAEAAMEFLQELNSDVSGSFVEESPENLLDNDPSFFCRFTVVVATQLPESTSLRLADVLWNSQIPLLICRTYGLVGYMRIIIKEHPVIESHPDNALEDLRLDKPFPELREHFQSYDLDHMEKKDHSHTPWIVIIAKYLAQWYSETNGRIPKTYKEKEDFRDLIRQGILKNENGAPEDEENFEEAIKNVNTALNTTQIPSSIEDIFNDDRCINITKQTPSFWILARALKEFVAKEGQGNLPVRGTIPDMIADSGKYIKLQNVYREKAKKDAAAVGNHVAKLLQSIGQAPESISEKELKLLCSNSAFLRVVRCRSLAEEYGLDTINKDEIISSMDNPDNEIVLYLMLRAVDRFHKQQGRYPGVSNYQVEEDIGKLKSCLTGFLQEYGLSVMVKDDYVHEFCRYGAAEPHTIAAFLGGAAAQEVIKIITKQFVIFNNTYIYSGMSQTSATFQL
T1 sequence 2: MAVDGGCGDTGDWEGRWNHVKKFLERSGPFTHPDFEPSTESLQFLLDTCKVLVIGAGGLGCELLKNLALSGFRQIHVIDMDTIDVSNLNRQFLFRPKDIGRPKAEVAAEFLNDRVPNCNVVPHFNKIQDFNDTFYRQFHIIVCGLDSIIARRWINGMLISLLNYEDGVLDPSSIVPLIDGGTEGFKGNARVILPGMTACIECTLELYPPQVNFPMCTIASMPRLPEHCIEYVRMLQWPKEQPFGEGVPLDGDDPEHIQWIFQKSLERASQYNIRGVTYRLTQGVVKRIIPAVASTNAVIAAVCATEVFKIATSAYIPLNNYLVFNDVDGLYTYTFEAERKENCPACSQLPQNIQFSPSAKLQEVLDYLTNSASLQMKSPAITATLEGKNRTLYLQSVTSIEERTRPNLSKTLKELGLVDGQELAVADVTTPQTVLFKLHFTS
Protocol: (§1) Specifically, Phe5 and Gln9 were replaced with (S)-2-(4′-pentenyl) alanine and these side-chains were covalently linked to test the effect of “stapling” an acetylated Ubc12 peptide into a helix (Bird et al. (2008) Methods Enzymol 446:369-386).
(§2) Protein samples were buffer matched by desalting over a NAP-5 column (GE Healthcare) into 50 mM Hepes, 125 mM NaCl, 1 mM BME, pH 7.0 (ITC buffer). Peptides were dissolved by weight to a final concentration of 10 mM in ITC buffer and diluted further in ITC buffer as required for the experiments. […] The peptide ligands (4 mM) were constantly injected (1.5 μl). The interval time between each injection was 3 minutes and the duration of each injection was 3 seconds. […] Peptide ligands (250 μM) were constantly injected (2.5 μl). The interval time between each injection was three minutes and the duration of each injection was 5 seconds. […] The interval time between each injection was 3 minutes and the duration of each injection was 5 seconds. Obtained spectra were evaluated using Origin (V 7.0) to determine heats of binding and Kd values.

[2] = biological target: T2, hDcn1^P (PONY domain of human Dcn1 / DCUN1D1 / SCCRO, residues 62 to 259) (Homo sapiens, UniProt Q96GG9 62-259); assay: ITC, peptide titrated into hDcn1^P
T2 construct: NEDD8 co-E3; Expressed as a GST fusion in E. coli; GST was removed with TEV protease; also called DCUN1D1^P
T2 sequence (Q96GG9 62-259): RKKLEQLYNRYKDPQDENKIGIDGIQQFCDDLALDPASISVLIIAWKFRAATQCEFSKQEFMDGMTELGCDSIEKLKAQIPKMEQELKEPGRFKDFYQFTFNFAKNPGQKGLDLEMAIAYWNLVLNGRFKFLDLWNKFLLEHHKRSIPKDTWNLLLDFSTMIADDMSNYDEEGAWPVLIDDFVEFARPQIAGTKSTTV
Protocol: as §1, §2

[3] = biological target: T3, hDcn1^P (potentiating neddylation / PONY domain of human Dcn1, DCUN1D1) (Homo sapiens, UniProt Q96GG9 62-259); assay: ITC, two-site fit, first value
T3 construct: also called DCUN1D1^P; SCCRO PONY domain
T3 sequence (Q96GG9 62-259): as above
Protocol: as §2

[4] = biological target: T3, hDcn1^P (potentiating neddylation / …); assay: ITC, two-site fit, second value
Protocol: as §2

[5] = biological target: T1, hE1 for Nedd8 (APPBP1-UBA3, NAE1-UBA3); assay: ITC, peptide titrated into hE1; remark: listed apart in the source
Protocol: (§3) To gain insights into mechanistic roles of Ubc12 N-terminal acetylation, isothermal titration calorimetry (ITC) was used to quantify interactions with peptides corresponding to the N-termini of yeast or human Ubc12.
as §2

[6] = biological target: T2, hDcn1^P (PONY domain of human Dcn1 / …); assay: ITC, peptide titrated into hDcn1^P; remark: listed apart in the source
Protocol: as §3, §2

[7] = biological target: T3, hDcn1^P (potentiating neddylation / …); assay: ITC, peptide titrated into Dcn PONY domain
Protocol: as §2

[8] = biological target: T4, hDcn5^P (PONY domain of human DCUN1D5) (Homo sapiens, UniProt Q9BTE7 47-237); assay: ITC, peptide titrated into Dcn PONY domain
T4 sequence: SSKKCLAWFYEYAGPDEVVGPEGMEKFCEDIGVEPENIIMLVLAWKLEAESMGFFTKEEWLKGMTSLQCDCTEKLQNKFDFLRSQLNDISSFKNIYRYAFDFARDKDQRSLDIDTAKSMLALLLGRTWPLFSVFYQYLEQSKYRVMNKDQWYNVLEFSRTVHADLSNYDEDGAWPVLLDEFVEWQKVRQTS
Protocol: as §2

[9] = biological target: T5, hDcn3^P (PONY domain of human DCUN1D3) (Homo sapiens, UniProt Q8IWE4 86-304); assay: ITC, peptide titrated into Dcn PONY domain
T5 sequence: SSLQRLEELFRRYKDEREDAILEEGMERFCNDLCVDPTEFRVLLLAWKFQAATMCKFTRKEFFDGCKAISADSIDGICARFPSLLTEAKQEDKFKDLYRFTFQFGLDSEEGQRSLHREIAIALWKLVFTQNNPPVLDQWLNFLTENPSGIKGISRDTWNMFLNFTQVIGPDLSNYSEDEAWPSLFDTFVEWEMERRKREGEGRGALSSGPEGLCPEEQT
Protocol: as §2

[10] = biological target: yDcn1^P (potentiating neddylation / PONY domain of Saccharomyces cerevisiae Dcn1) (Saccharomyces cerevisiae) (UniProt Q12395); assay: ITC, peptide titrated into yDcn1^P
[11] = biological target: T6, yE1 for yNedd8 (Ula1-Uba3) (Saccharomyces cerevisiae, UniProt Q12059 1-462, limits assumed); assay: ITC, peptide titrated into yE1
T6 construct: Heterodimeric E1 expressed in E. coli as described in earlier publications
T6 sequence 1: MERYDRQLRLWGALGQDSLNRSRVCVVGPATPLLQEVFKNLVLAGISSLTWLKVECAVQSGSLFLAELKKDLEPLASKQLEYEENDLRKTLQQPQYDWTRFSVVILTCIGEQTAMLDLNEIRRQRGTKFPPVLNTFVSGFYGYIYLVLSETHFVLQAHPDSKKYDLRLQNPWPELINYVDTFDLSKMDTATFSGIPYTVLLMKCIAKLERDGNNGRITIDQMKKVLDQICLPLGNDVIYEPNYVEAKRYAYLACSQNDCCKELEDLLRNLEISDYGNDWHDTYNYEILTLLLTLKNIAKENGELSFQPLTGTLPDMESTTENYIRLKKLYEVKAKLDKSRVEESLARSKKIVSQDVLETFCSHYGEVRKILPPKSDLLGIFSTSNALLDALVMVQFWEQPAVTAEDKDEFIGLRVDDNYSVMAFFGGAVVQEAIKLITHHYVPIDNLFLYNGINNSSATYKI
T6 sequence 2: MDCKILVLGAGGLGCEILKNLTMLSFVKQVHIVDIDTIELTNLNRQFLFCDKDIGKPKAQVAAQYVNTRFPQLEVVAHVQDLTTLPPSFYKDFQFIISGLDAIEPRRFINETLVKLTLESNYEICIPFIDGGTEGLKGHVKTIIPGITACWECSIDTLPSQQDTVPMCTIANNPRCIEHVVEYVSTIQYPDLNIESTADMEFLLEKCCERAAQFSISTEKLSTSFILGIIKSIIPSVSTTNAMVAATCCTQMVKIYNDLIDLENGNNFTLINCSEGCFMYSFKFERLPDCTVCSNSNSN
Protocol: as §3, §2

[12] = biological target: hDcn1^P (PONY domain of human Dcn1 / DCUN1D1 / SCCRO, residues 62 to 259) (Homo sapiens) (UniProt Q96GG9); assay: ITC, peptide titrated into hDcn1^P
Sequence of hDcn1^P (PONY domain of human Dcn1 / DCUN1D1 / SCCRO, residues 62 to 259) (Homo sapiens) (Q96GG9 62-259): as the sequence (Q96GG9 62-259) above

B1: Acetyl-hUbc12^1-12 peptide (peptide)
peptide: Ac-MIKLFSLKQQKK-NH2
notes: Synthetic control peptide for the stapled peptide; also called hUbc12^Ac1-12
Kd [1]: 630 nM | ΔH [1]: -11.5 kcal/mol | ΔS [1]: -11 cal/mol/deg | ΔH [2]: -4.99 kcal/mol | ΔS [2]: 8.79 cal/mol/deg

B2: hUbc12^Ac1-12 (Met) SS 6, 10 (peptide)
peptide: Ac-MIKLF[S5]LKQ[S5]KK-NH2
modifications: staple 6-10
notes: Stapled synthetic peptide; 'SS' is not explained in the text
Kd [3]: 1.8 nM | Kd [4]: 187 nM

B3: Acetyl-hUbc12^2-26 peptide (peptide)
peptide: Ac-IKLFSLKQQKKEEESAGGTKGSSKK-NH2
notes: Synthetic peptide lacking Met1; also called hUbc12^Ac-2-26
Kd [5]: 390 nM | N (stoichiometry) [5]: 1.04 | ΔH [5]: -8.9 kcal/mol | ΔS [5]: -1.24 cal/mol/deg | ΔH [6]: 1.72 kcal/mol | ΔS [6]: 24.1 cal/mol/deg

B4: yUbc12^Ac1-12 (Met) 6, 10 (peptide)
peptide: Ac-MLKLR[S5]LQK[S5]KQ-NH2
modifications: staple 6-10
SMILES: CSCC[C@H](NC(C)=O)C(=O)N[C@@H](CC(C)C)C(=O)N[C@@H](CCCCN)C(=O)N[C@@H](CC(C)C)C(=O)N[C@@H](CCCNC(=N)N)C(=O)N[C@@]1(C)CCCC=CCCC[C@@](C)(C(=O)N[C@@H](CCCCN)C(=O)N[C@@H](CCC(N)=O)C(N)=O)NC(=O)[C@H](CCCCN)NC(=O)[C@H](CCC(N)=O)NC(=O)[C@H](CC(C)C)NC1=O
notes: Stapled synthetic peptide; also called Acetyl-yUbc12^1-12(6:10 Staple)
Kd [3]: 38 nM | Kd [4]: 37 nM

Ac-[SeMet]IKLF[S5]LKQ[S5]KK-NH2 (staple 6-10, Stapled synthetic peptide) [hUbc12^Ac1-12 (SeMet) 6, 10]
Kd [3]: 0.93 nM | Kd [4]: 361 nM

Ac-MIKLF[αMeNva(5-ylidene)]LKQ[S8]KK-NH2 (staple 6-10) [hUbc12^Ac1-12 (Met) But:Oct 6, 10]
Kd [7]: 120 nM | Kd [8]: 781 nM | Kd [9]: 1520 nM

B5: yUbc12^1-24 peptide (free N-terminus) (peptide)
peptide: H-MLKLRQLQKKKQKENENSSSIQPN-NH2
notes: Synthetic peptide, N-terminal extension of yeast Ubc12
N (stoichiometry) [10]: 1.16 | ΔH [10]: 3.78 kcal/mol | ΔS [10]: 33.4 cal/mol/deg | Kd [11]: 70 nM | N (stoichiometry) [11]: 1.05 | ΔH [11]: -8.57 kcal/mol | ΔS [11]: 2.65 cal/mol/deg

B6: Acetyl-hUbc12^1-12(5:9Staple) peptide (peptide)
peptide: Ac-MIKL[S5]SLK[S5]QKK-NH2
modifications: staple 5-9
notes: Printed as Ac-MIKLXSLKXQKK-NH2, X = 2-(4-pentenyl)alanine; Phe5 and Gln9 are replaced
binding result [1]: no binding | Kd [2]: 150 nM | ΔH [2]: -3.39 kcal/mol | ΔS [2]: 19.3 cal/mol/deg

B7: Acetyl-hUbc12^1-26 peptide (peptide)
peptide: Ac-MIKLFSLKQQKKEEESAGGTKGSSKK-NH2
notes: Synthetic peptide; also called hUbc12^Ac1-26
Kd [5]: 943 nM | N (stoichiometry) [5]: 1.14 | ΔH [5]: -9.43 kcal/mol | ΔS [5]: -4.79 cal/mol/deg | Kd [6]: 1110 nM | ΔH [6]: -6.11 kcal/mol | ΔS [6]: 5.84 cal/mol/deg

B8: hUbc12^1-26 peptide (free N-terminus) (peptide)
peptide: H-MIKLFSLKQQKKEEESAGGTKGSSKK-NH2
notes: Synthetic peptide, N-terminal extension of human Ubc12 (UBE2M)
Kd [5]: 585 nM | N (stoichiometry) [5]: 1.29 | ΔH [5]: -8.88 kcal/mol | ΔS [5]: -1.99 cal/mol/deg | N (stoichiometry) [12]: 0.75 | ΔH [12]: 1.26 kcal/mol | ΔS [12]: 22.2 cal/mol/deg

B9: hUbc12^Ac1-12 (NorLeu) 6, 10 (peptide)
peptide: Ac-[Nle]IKLF[S5]LKQ[S5]KK-NH2
modifications: staple 6-10
SMILES: CCCC[C@H](NC(C)=O)C(=O)N[C@H](C(=O)N[C@@H](CCCCN)C(=O)N[C@@H](CC(C)C)C(=O)N[C@@H](Cc1ccccc1)C(=O)N[C@@]1(C)CCCC=CCCC[C@@](C)(C(=O)N[C@@H](CCCCN)C(=O)N[C@@H](CCCCN)C(N)=O)NC(=O)[C@H](CCC(N)=O)NC(=O)[C@H](CCCCN)NC(=O)[C@H](CC(C)C)NC1=O)[C@@H](C)CC
notes: Stapled synthetic peptide
Kd [3]: 800 nM | Kd [4]: 1200 nM
